Measured values as given in paper PMC9191634 (Proceedings of the National Academy of Sciences of the …, 2022).

Type: physicochemical
Details: n = 3

Q: For “AgTx2: scorpion toxin that binds in the external pore region of K+ channels”, which “partitioning into LUVs” value is on record?
A: did not partition
